The text below walks through data of patent US20110239311A1 (MEDIZINISCHE UNIVERSITAT INNSBRUCK, published 2011).

For assay [1], the target named is T1, endogenous PKCalpha from Jurkat T cell lysate (human, UniProt P17252 2-672).
T1 construct: also called PKCα
Kind of assay: GST pull down from Jurkat T cell lysate, immunoblot. The method, then:
(§1) GST pull down assay: 1×10⁷ Jurkat T cells were lysed in 1 ml lysis buffer (25 mM MES pH 6.5, 5 mM NaF, 1 mM Na₃VO₄, 2 mM EDTA, 150 mM NaCl, 0.5% TritonX-100, 50 μg/ml aprotinin and leupeptin). Lysates were precleared for 30 min at 4° C. Thereafter incubation with purified recombinant GST-NR2F6 fusion proteins for 3 h at 4° C., 5× washing in lysis buffer, SDS-PAGE under reducing conditions on Bis/Tris-buffered gels (Novex, San Diego, Calif.) was performed. Proteins were transferred onto a polyvinyl-difluoridon (PVDF) membrane (Millipore, Bedford, Mass.) by semi-dry blotting (90 mA, 80 min, 4° C.). […] Peroxidase-conjugated antibodies (Pierce, Rockford, Ill.) served as secondary reagent (1:5,000). For antigen detection enhanced chemiluminescence was used (Super Signal, Pierce, Rockford, Ill.).
For orientation: In western blotting, separated proteins are transferred to a membrane and probed.

Assay [2] concerns the target T2, endogenous PKCtheta from Jurkat T cell lysate (human, UniProt Q04759 1-706).
T2 construct: also called PKCθ
The assay is described as above. The method, then: as §1

T2 sequence (Q04759 whole entry): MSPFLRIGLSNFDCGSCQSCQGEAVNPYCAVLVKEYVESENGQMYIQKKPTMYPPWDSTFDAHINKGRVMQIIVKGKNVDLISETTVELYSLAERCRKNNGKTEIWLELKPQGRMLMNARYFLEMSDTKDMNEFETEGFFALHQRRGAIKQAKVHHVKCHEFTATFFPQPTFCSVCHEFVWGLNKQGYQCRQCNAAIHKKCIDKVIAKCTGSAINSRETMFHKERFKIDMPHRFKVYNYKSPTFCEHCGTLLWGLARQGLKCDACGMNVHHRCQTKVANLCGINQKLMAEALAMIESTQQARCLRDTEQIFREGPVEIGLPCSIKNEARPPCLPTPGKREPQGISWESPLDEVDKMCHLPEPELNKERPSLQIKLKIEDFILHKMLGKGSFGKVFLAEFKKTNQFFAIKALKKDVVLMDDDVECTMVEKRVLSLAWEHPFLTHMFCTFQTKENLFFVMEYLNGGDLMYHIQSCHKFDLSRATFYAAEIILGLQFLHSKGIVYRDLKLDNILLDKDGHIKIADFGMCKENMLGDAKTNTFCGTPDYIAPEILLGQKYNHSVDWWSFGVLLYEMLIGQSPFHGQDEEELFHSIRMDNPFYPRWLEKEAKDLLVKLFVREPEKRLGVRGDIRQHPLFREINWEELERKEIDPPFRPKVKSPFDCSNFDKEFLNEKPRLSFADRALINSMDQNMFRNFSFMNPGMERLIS

B1: GST-NR2F6 fusion protein, wild-type, full-length (purified recombinant) (other)
chain: MAMVTGGWGGPGGDTNGVDKAGGYPRAAEDDSASPPGAASDAEPGDEERPGLQVDCVVCGDKSSGKHYGVFTCEGCKSFFKRSIRRNLSYTCRSNRDCQIDQHHRNQCQYCRLKKCFRVGMRKEAVQRGRIPHSLPGAVAASSGSPPGSALAAVASGGDLFPGQPVSELIAQLLRAEPYPAAAGRFGAGGGAAGAVLGIDNVCELAARLLFSTVEWARHAPFFPELPVADQVALLRLSWSELFVLNAAQAALPLHTAPLLAAAGLHAAPMAAERAVAFMDQVRAFQEQVDKLGRLQVDSAEYGCLKAIALFTPDACGLSDPAHVESLQEKAQVALTEYVRAQYPSQPQRFGRLLLRLPALRAVPASLISQLFFMRLVGKTPIETLIRDMLLSGSTFNWPYGSGQ
notes: GST is placed at the N-terminus from the name 'GST-NR2F6' only; also called recombinant NR2F6; not shown: glutathione S-transferase (GST) fusion tag
As to B1, the binding result in assay [1] and in assay [2] was “binds” each time.
